Test results from a protein production outcome set (Wang et al. 2014).

Experiment: label from the status in PepcDB records
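Further: failed if final PepcDB status was selected cloned or expressed and not failed if soluble or beyond.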

Sequence | protein production
GSPDPEIFRQRFRQFGYQDSPGPREAVSQLRELCRLWLRPETHTKEQILELVVLEQFVAILPKELQTWVRDHHPENGEEAVTVLEDLESELDD | not failed
MSEQKAPIIVKRIKKTSGGHHGGAWKIAYADFVTAMMAFFLLMWLLGSTTRGDLEGIAEYFKTPLKVAMQGGTGSGDSSSVIKGGGADLTRKNGQIKKGEVDADRKSYNLKAAQAELERLETAKLKQLKQRLEAAIDRNPTLKQFKRQLLIDITSEGLRIQIVDEQNRPMFNLASAELQPYTKVILHEIAQVLNDVENRISLSGHTDARPYANGERGYSNWELSADRANASRRELIVGGMSEAKMLRVVGLASSVPFTQAKPFDPVNRRISIIVLNKRTEEAITKEASGAEVTDQNGASDALDRRAPPSDVAAPAAAAK | failed
MKIRFISLASGSSGNCYYLGTEKYGILIDAGIGIRTIKKSLKDINVTMDSIRAVFITHDHADHIKAVGHLGEKLNIPVYTTARVHAGINKSYCMTEKLHGSVRYLEKEEPMLLEDFRIESFEVPHDGTDNVGYCIEIDGKVFSFLTDLGEITPTAARYICKAHYLIIEANYDEEMLRMGPYPTYLKERISSKTGHMSNIDTANFLAENIMEHLRYIWLCHLSKDNNHPELAYKTVEWKLKSKGIIVGKDVQLLALKRNTPSELYEFE | failed
MYYGFDIGGTKIALGVFDSTRRLQWEKRVPTPHTSYSAFLDAVCELVEEADQRFGVKGSVGIGIPGMPETEDGTLYAANVPAASGKPLRADLSARLDRDVRLDNDANCFALSEAWDDEFTQYPLVMGLILGTGVGGGLVLNGKPITGQSYITGEFGHMRLPVDALTLMGFDFPLRRCGCGQMGCIENYLSGRGFAWLYQHYYDQSLQAPEIIALWEQGDEQAHAHVERYLDLLAVCLGNILTIVDPDLLVIGGGLSNFTAITTQLAERLPRHLLPVARAPRIERARHGDAGGMRGAAFLHLTD | not failed
MRHNIKFKSKGTLKIRNTAQISLWKKCSDSMIADQTYLFINRVQDRRFDEESLRILELSLVAMNVKSFLEVRSRLRDFMRSESVVIFGELTGESMVAKLSVLEFFARAFALLGDMESCLAMRYEALNLRQLKSPSCLWLGVSHSEWTKFAVQSMENGFPSIAGKASENALLSLKKDSLIEPKSEDNSDILDAAEKVRRLRDSAASLTSSHSGIFIYIVSSLKFAVCNRLLTTF | failed
IRVAAFNVLNYDNGAEKGFPTDRGATTATEFSRQHQKIVTALKAINADVYGLMEIANNGYDEKSAIAYLTKSLGPDWKYITPPNMNRLGSDVIAVGILYNAKRVKPVNAAVVFDDQSQKNRVTMAQTFQPIHGGKFFTVIPNHLKSKGSCPEDTASTDADQLDGQGCWNPTRVKAVEQLIQWAAKNPTRVQQPNILFLGDMNSYAKEDPILAFEKANYKVLLNDEKIGQGKQAYSYVFGVSSNALGYGGAGNIDHAIADSNLYRFVKRAFVWHINADEPTALDYNEEYKTDEQKTLFYADDAYRSSDHDPVIVDLDLKESAQQGGVLNFIQQLLDWIAQLFTRT | failed
MNASAVETIYESTEDKAALTSVVDLVKLSDQYRQSAILHYAVADKLFDLTQTGRTPAEVAASFGMVEGKAAILLHALAALGLLTKEGDAFRNTALTERYLTTTSADYIGPIVEHQYLQWDNWPRLGEILRSEKPLAFQQESRFAHDTRARDAFNDAMVRLSQPMVDVVSELGVFARARTVIDLAGGHGTYLAQVLRRHPQLTGQIWDLPTTRDAARKTIHAHDLGGRVEFFEKNLLDARNFEGGAADVVMLNDCLHYFDAREAREVIGHAAGLVKPGGALLILTMTMNDDRVTPALSADFSLHMMVNTNHGELHPTPWIAGVVRDAGLAVGERSIGRYTLLIGQRSSGEV | not failed
MLSYYGRLSSEVYDIDKPIDHSFRDVEFYIDRLNLCRGHILEPATGTGRVLVPLLEKGFKVDGFDSSKDMLNICRDNCRKKGLNPKLFEAKMESFIQDTRYDAIIVPAGTFLLLHQRADSIRALQNFHKHLCSGGRLIIDILMQTDFSTGTVSTRTWVCSNGDLITLESKVVEVDYINQYTVSHNRYEKWREGVLIQTELERFPLRWYGLEEFKLILESTGFKDIVISSDYKFGQYPSNVKDVITFEAVAIN | failed
NLNAIQNFGAMDILCTDKTGTLTCDKIVLEKYINADGSDDNSKRILRHAYFNSYFQTGLRNLMDKAILSHVRELNLEHLKDAYTKVDEIPFDFTRRRMSVVIEDRQGKRQIITKGAVEEILDVCSYAEFDREIHPLTDSLKIKAQKISEEMNRQGMRVLAVSQKSFIEKDCNFAIEDEKEMVLIGYLAFLDP | not failed
MAASFAFLRDIRPYKTSWRIQVKVFHSWRQYTSMTGETLELVLVDAHGVKIHASVKKDLVSNFVNNLLLNEWRFIETFALNHASGQFRPTGHLYKMTFVTGTQCILLDVMGQVVDIGELETLEAKNKPTIKLDFELRDDTDERMSCTLWGAFAQSVFSACEFADGQMVICVLRFAKIKSYKGVRSFSNSFYASQVHINPDFPEVQAFVSRVPKFHMVTVKQDDDCKQYERKSIRDFLHSMEVRVVCTIYALDTDWSWYYFSCRNCNKKVTHIHAGVNTTSLKSSKPRFWCDVCKNGVTNVQAK | failed
MILLIMNTDDFQFFIRVADCGSLSKAAQEANISVSVASQRIQRLESTLKLRLFYRTTRKITLTDEGRKLLDFGRYWLDDFITLKDTLTARDKPLTGNLRVTTSATFGIKILTKVIANFALLHPTLNIYLDLNDQNIDLIEHGMDLAIRIGKLNDSSLVAKPLMTNHRLICAAPSYLNQYGMPHSIEDLQQHRCILQQHQNGLTDHWQLIDQKRTVVDVHLKAYFTTNSGEAIRQAALQGLGISNHSRWHVADDLEQGHLIELLPEYQIEPTTIYAVFPNRQFRQPKTELFLSYLQNYFKHEYPWNIRKN | failed
MNVVQVEYLNVAEIKALLNSTISKLNPRYTSNYMIVTAILTGARLSEIAGLTWNDINFNFNTININKSYDYFAKSFKPTKNKSSNRIIKINNTLCDVLKELRTNNTDLVFKNKRGLIPTSNAVNKALRARLEELNINRRNFHFHSLRHSHVAFLLSQGIDIYPIAQRLGHSDITTTTRTYAYLIEEYKDKNDAIIIAGLDKLEHHHHHH | failed
MFCLMSKEYLSWDKFIVTKIPSSVKLDPIIYEYIKKDHLILDIGCGVGKVSLQLAFQGFYVEGIDINETGILAAQDSARKLNLADKAHFRVGDAKDLPYMDDKFDIVIMHGLLTIIVDNSDRNKIIQEAYRVLNPEGHLYIVDFGQTWHSDIYRERYLKDFPITKEEGSFLVYNKDTGEIEFISHHYTEKELIFLLVNNGFKIDYFRDFLLFSGFSFSLYIVQNNKILIILIYFFYLWEKETLQ | failed
MSCTGFWRKLASGEECGAAARLLGAVLAIPAALYGLVVRLRALAYARGLSTVRHLDRPVISVGNLTVGGTGKTPMVAYLARRLMARGKRVAVISRGYGGSLEGETRIVSDGRTIVLSAAEAGDEPVHLATSVPGLMTVIGTDRYTAGLLALEQLDPDVFILDDGYQHLRLHRDLNILLMDCNRPLGNGRTLPAGLLREPQTAVRRADLVVYTRCTGGKAPAVHGMIPSCRAGHALTGAALLPDGEVQPLAALRGLRGVACAGIAEPEGFFDALRREGLDIVAAIPFADHASYGEREVSTLREAAAGADYLITTGKDGVKLSAHLARLLPVYATVLEMRPLDPAPLEAALDKVL | failed
MEQFLDNIKDLEVTTVVRAQEALDKKETATFFIGRKTCPYCRKFAGTLSGVVAETKAHIYFINSEEPSQLNDLQAFRSRYGIPTVPGFVHITDGQINVRCDSSMSAQEIKDFAGL | not failed
MEGIQHPIPRTVEEVFSDFRGRRAGLIKALSTDVQKFYHQCDPEKENLCLYGLPNETWEVNLPVEEVPPELPEPALGINFARDGMQEKDWISLVAVHSDSWLISVAFYFGARFGFGKNERKRLFQMINDLPTIFEVVTGNAKQSKDQSANHNSSRSKSSGGKPRHSESHTKASKMSPPPRKEDESGDEDEDDEQGAVCGACGDNYGGDEFWICCDACEKWFHGKCVKITPAKAEHIKHYKCPSCTTSKKMKA | failed
MAQTEKLTDYVNPFVGTDGYGNVYPGAQIPFGGIQISPDTDSRFYDAASGYKYNHLTLMGFSLTHLSGTGIPDLGDFLFIPGTGEMKLEPGTHEDPDQGYRSRYSHDKEWASPNYYAVELADYGVKAEMTSGVRSGMFRFTYPESDNAFIMIDMNHTLWQSCEWSNLRMINDSTITGYKLVKGWGPERHVYFTLEHHHHHH | failed
SSQQRPARKLPSLLLDPTEETVRRRCRDPINVEGLLPSKIRINLEDNVQYVSMRKALKVKRPRFDVSLVYLTRKFMDLVRSAPGGILDLNKVATKLGVRKRRVYDITNVLDGIDLVEKKSKNHIRWIGSDLSNFGAVPQQKKLQEELSDLSAMEDALDELIKDCAQQLFELTDDKENERLAYVTYQDIHSIQAFHEQIVIAVKAPAETRLDVPAPREDSITVHIRSTNGPIDVYLCEVEQGQTSNKRSEGVGTSSSESTHPEGPEEEENPQQSEELLEVSN | failed
GRLRTDAVRAFCTTIVEATAPYACAFKPNFAFFEALGPAGLTVLDQVVTTIPDDCLVLGDAKRGDIGHSARHYAASIYEELGLDACTVSPYLGRDSVMPFLEHEGTCTFVLARTSNDGAADLQEACTCDGTPLYRHVARRVQAWNADAPGGAGLVVGATAPAALQDLRSLCPSLPFLVPGVGAQGGDAAAVMDAAATDEGPVLVNSSRSILYASEGPNYANAAADAARALRDALNG | failed
MTDTNVLANSATDNQETTHFGFETVRKDEKVHKVAQVFHSVAAKYDIMNDLMSGGIHRLWKRFTIDCSGARPGQRILDLGGGTGDLTAKFSRIVGEKGHVILADINNSMLNVGRDKLRDSGVVGNVHYVQANAEELPFPDNYFDCITISFCLRNVTDKDKALRSMFRVLKPGGRLLVLEFSKPILEPLSKLYDTYSFHILPKMGQLIANDADSYRYLAESIRMHPDQETLKGMMEEAGFEQTTYYNLTGGIVALHRGYKFLEHHHHHH | not failed
MKRFVLFLLFMCVCVQAYAEQDYFFRDFKSRDLPQKLHLDKKLSQTIQPCMQLNASKHYTSTGVREPDKCTKSFKKSALMSYDLALGYLVSKNKQYGLKAIEILNAWAKELQSVDTYQSEDNINFYMPYMNMAYWFVKKAFPSPEYEDFIKRMRQYSQSALNTNHGAWGILFDVSSALALDDNALLHNSANRWQEWVFKAIDENGVIASAITRSDTSDYHGGPTKGIKGIAYTNFALLALTISGELLFENGYDLWGSGAGKRLSVAYNKVATWILNPETFPYFQPNLIGVHNNAYFIILAKHYSSPSANELLKQGDLHEDGFRLKLRSP | failed
SSGGKSAQGPEEGGVCITEALITKRNLTFPEDGELSEKMFHTLDELQTVRLDREGITTIRNLEGLQNLHSLYLQGNKIQQIENLACIPSLRFLSLAGNQIRQVENLLDLPCLQFLDLSENLIETLKLDEFPQSLLILNLSGNSCTNQDGYRELVTEALPLLLDLDGQPVVERWISDEEDEASSDEEFPELSGPFCSERGFLKELEQELSRHREHRQQTALTEHLLRMEMQPTLTDLPLLPGVPMAGDSSPSATPAQGEETVPEAVSSPQASSPTKKPCSLIPRGHQSSFWGRKGARAATAPKASVAEAPSTTKTTAKRSKK | not failed
DVAYELPAHTTRAQLSIDLVNNGDVEQQEKINSMRFIVFGSTPGGVRLDVNEHILLSTPETATDIDAQLLEVTSSNDILVVVIANEPQSLTSQLDGIANLLTLQEMIYDISSILNSDGQIISATGMPMTGVIRDISIAPDETKTVQMVIERAVARVDVFIEAIDGGAVTGYTAGSTSVTLHNFSHDSYFVMGNVGNGTRDNADSSKNYGKVKEDVSESNLLTHSWTAATTETWAYSSAPGAENRKLLCSFYTAERLFKSDYSDRLSISMANVLKGPSDVTGITGKVIESVTKVDGTGSPTAQPFTEIRRNNVYQVTARVGKIGIQILTISVEDWGERQDIDLDMDL | not failed
MSLSHKAWQNAHAMYENDACAKALGIDIISMDEGFAVVTMTVTAQMLNGHQSCHGGQLFSLADTAFAYACNSQGLAAVASACTIDFLRPGFAGDTLTATAQVRHQGKQTGVYDIEIVNQQQKTVALFRGKSHRIGGTITGEAEGGSHHHHHH | not failed
